Numbered stars: 1 amine (or outer) side, 2 acyl side, 3 side chain; on linkers, the order of the positions; unused ones are H or OH. Square brackets hold non-standard residues; d marks the D form. Side chains are listed from the residue outwards. Ends that are not written are not given here. * marks the point of attachment. C20 diacid = O=C(O)CCCCCCCCCCCCCCCCCCC(=O)*; γGlu = O=C(O)[C@H](CCC(=O)[*:2])N[*:1]; AEEA = NCCOCCOCC(=O)O; Aib = CC(C)(N)C(=O)O
T1: human GIP receptor (human, UniProt P48546 22-466)
T1 sequence (looked up): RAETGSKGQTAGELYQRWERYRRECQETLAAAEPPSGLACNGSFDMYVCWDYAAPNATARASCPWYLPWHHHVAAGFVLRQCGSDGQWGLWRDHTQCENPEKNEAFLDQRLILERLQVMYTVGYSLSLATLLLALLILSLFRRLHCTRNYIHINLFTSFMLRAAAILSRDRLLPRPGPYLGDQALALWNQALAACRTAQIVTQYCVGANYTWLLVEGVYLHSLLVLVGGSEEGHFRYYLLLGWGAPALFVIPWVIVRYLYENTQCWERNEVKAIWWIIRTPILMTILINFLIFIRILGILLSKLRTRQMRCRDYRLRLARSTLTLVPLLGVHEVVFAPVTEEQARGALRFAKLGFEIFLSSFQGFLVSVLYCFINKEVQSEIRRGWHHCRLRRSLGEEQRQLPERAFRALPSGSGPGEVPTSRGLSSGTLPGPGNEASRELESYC


Assays:
[1] = biological target: human GLP-1 receptor (human, UniProt P43220 24-463); experiment: cell-based or functional assay
[2] = biological target: T1, human GIP receptor; experiment: cell-based or functional assay

| Binder | hGLP1R cAMP EC50 ratio [1] | hGLP1R cAMP Rel EC50 [1] [nM] | hGIPR cAMP EC50 ratio [2] | hGIPR cAMP Rel EC50 [2] [nM] |
| --- | --- | --- | --- | --- |
| Y[Aib]EGTFTSDYSILLDKIAQ[Aib]AFIEYLIEGGPSK([AEEA-AEEA-γGlu-C20 diacid])GAPPPS-NH2 (N-terminus assumed; SMILES CC[C@H](C)[C@H](NC(=O)[C@H](CCCCN)NC(=O)[C@H](CC(=O)O)NC(=O)[C@H](CC(C)C)NC(=O)[C@H](CC(C)C)NC(=O)[C@@H](NC(=O)[C@H](CO)NC(=O)[C@H](Cc1ccc(O)cc1)NC(=O)[C@H](CC(=O)O)NC(=O)[C@H](CO)NC(=O)[C@@H](NC(=O)[C@H](Cc1ccccc1)NC(=O)[C@@H](NC(=O)CNC(=O)[C@H](CCC(=O)O)NC(=O)C(C)(C)NC(=O)[C@@H](N)Cc1ccc(O)cc1)[C@@H](C)O)[C@@H](C)O)[C@@H](C)CC)C(=O)N[C@@H](C)C(=O)N[C@@H](CCC(N)=O)C(=O)NC(C)(C)C(=O)N[C@@H](C)C(=O)N[C@@H](Cc1ccccc1)C(=O)N[C@H](C(=O)N[C@@H](CCC(=O)O)C(=O)N[C@@H](Cc1ccc(O)cc1)C(=O)N[C@@H](CC(C)C)C(=O)N[C@H](C(=O)N[C@@H](CCC(=O)O)C(=O)NCC(=O)NCC(=O)N1CCC[C@H]1C(=O)N[C@@H](CO)C(=O)N[C@@H](CCCCNC(=O)COCCOCCNC(=O)COCCOCCNC(=O)CC[C@H](NC(=O)CCCCCCCCCCCCCCCCCCC(=O)O)C(=O)O)C(=O)NCC(=O)N[C@@H](C)C(=O)N1CCC[C@H]1C(=O)N1CCC[C@H]1C(=O)N1CCC[C@H]1C(=O)N[C@@H](CO)C(N)=O)[C@@H](C)CC)[C@@H](C)CC) [Example 42] | 0.0471 | 1.45 | 0.897 | 0.161 |
| Y[Aib]EGTFTSDYSILLDKIAQ[Aib]AFIEYLIEGK([AEEA-AEEA-γGlu-C20 diacid])PSSGAPPPS-NH2 (N-terminus assumed; SMILES CC[C@H](C)[C@H](NC(=O)[C@H](CCCCN)NC(=O)[C@H](CC(=O)O)NC(=O)[C@H](CC(C)C)NC(=O)[C@H](CC(C)C)NC(=O)[C@@H](NC(=O)[C@H](CO)NC(=O)[C@H](Cc1ccc(O)cc1)NC(=O)[C@H](CC(=O)O)NC(=O)[C@H](CO)NC(=O)[C@@H](NC(=O)[C@H](Cc1ccccc1)NC(=O)[C@@H](NC(=O)CNC(=O)[C@H](CCC(=O)O)NC(=O)C(C)(C)NC(=O)[C@@H](N)Cc1ccc(O)cc1)[C@@H](C)O)[C@@H](C)O)[C@@H](C)CC)C(=O)N[C@@H](C)C(=O)N[C@@H](CCC(N)=O)C(=O)NC(C)(C)C(=O)N[C@@H](C)C(=O)N[C@@H](Cc1ccccc1)C(=O)N[C@H](C(=O)N[C@@H](CCC(=O)O)C(=O)N[C@@H](Cc1ccc(O)cc1)C(=O)N[C@@H](CC(C)C)C(=O)N[C@H](C(=O)N[C@@H](CCC(=O)O)C(=O)NCC(=O)N[C@@H](CCCCNC(=O)COCCOCCNC(=O)COCCOCCNC(=O)CC[C@H](NC(=O)CCCCCCCCCCCCCCCCCCC(=O)O)C(=O)O)C(=O)N1CCC[C@H]1C(=O)N[C@@H](CO)C(=O)N[C@@H](CO)C(=O)NCC(=O)N[C@@H](C)C(=O)N1CCC[C@H]1C(=O)N1CCC[C@H]1C(=O)N1CCC[C@H]1C(=O)N[C@@H](CO)C(N)=O)[C@@H](C)CC)[C@@H](C)CC) [Example 39] | 0.0323 | 1.92 | 1.07 | 0.133 |
| Y[Aib]EGTFTSDYSILLDKIAQ[Aib]AFIEYLIEGGK([AEEA-AEEA-γGlu-C20 diacid])SSGAPPPS-NH2 (N-terminus assumed; SMILES CC[C@H](C)[C@H](NC(=O)[C@H](CCCCN)NC(=O)[C@H](CC(=O)O)NC(=O)[C@H](CC(C)C)NC(=O)[C@H](CC(C)C)NC(=O)[C@@H](NC(=O)[C@H](CO)NC(=O)[C@H](Cc1ccc(O)cc1)NC(=O)[C@H](CC(=O)O)NC(=O)[C@H](CO)NC(=O)[C@@H](NC(=O)[C@H](Cc1ccccc1)NC(=O)[C@@H](NC(=O)CNC(=O)[C@H](CCC(=O)O)NC(=O)C(C)(C)NC(=O)[C@@H](N)Cc1ccc(O)cc1)[C@@H](C)O)[C@@H](C)O)[C@@H](C)CC)C(=O)N[C@@H](C)C(=O)N[C@@H](CCC(N)=O)C(=O)NC(C)(C)C(=O)N[C@@H](C)C(=O)N[C@@H](Cc1ccccc1)C(=O)N[C@H](C(=O)N[C@@H](CCC(=O)O)C(=O)N[C@@H](Cc1ccc(O)cc1)C(=O)N[C@@H](CC(C)C)C(=O)N[C@H](C(=O)N[C@@H](CCC(=O)O)C(=O)NCC(=O)NCC(=O)N[C@@H](CCCCNC(=O)COCCOCCNC(=O)COCCOCCNC(=O)CC[C@H](NC(=O)CCCCCCCCCCCCCCCCCCC(=O)O)C(=O)O)C(=O)N[C@@H](CO)C(=O)N[C@@H](CO)C(=O)NCC(=O)N[C@@H](C)C(=O)N1CCC[C@H]1C(=O)N1CCC[C@H]1C(=O)N1CCC[C@H]1C(=O)N[C@@H](CO)C(N)=O)[C@@H](C)CC)[C@@H](C)CC) [Example 40] | 0.0801 | 0.746 | 1.06 | 0.136 |
| Y[Aib]EGTFTSDYSILLDKIAQ[Aib]AFIEYLIEK([AEEA-AEEA-γGlu-C20 diacid])GPSSGAPPPS-NH2 (N-terminus assumed; SMILES CC[C@H](C)[C@H](NC(=O)[C@H](CCCCN)NC(=O)[C@H](CC(=O)O)NC(=O)[C@H](CC(C)C)NC(=O)[C@H](CC(C)C)NC(=O)[C@@H](NC(=O)[C@H](CO)NC(=O)[C@H](Cc1ccc(O)cc1)NC(=O)[C@H](CC(=O)O)NC(=O)[C@H](CO)NC(=O)[C@@H](NC(=O)[C@H](Cc1ccccc1)NC(=O)[C@@H](NC(=O)CNC(=O)[C@H](CCC(=O)O)NC(=O)C(C)(C)NC(=O)[C@@H](N)Cc1ccc(O)cc1)[C@@H](C)O)[C@@H](C)O)[C@@H](C)CC)C(=O)N[C@@H](C)C(=O)N[C@@H](CCC(N)=O)C(=O)NC(C)(C)C(=O)N[C@@H](C)C(=O)N[C@@H](Cc1ccccc1)C(=O)N[C@H](C(=O)N[C@@H](CCC(=O)O)C(=O)N[C@@H](Cc1ccc(O)cc1)C(=O)N[C@@H](CC(C)C)C(=O)N[C@H](C(=O)N[C@@H](CCC(=O)O)C(=O)N[C@@H](CCCCNC(=O)COCCOCCNC(=O)COCCOCCNC(=O)CC[C@H](NC(=O)CCCCCCCCCCCCCCCCCCC(=O)O)C(=O)O)C(=O)NCC(=O)N1CCC[C@H]1C(=O)N[C@@H](CO)C(=O)N[C@@H](CO)C(=O)NCC(=O)N[C@@H](C)C(=O)N1CCC[C@H]1C(=O)N1CCC[C@H]1C(=O)N1CCC[C@H]1C(=O)N[C@@H](CO)C(N)=O)[C@@H](C)CC)[C@@H](C)CC) [Example 38] | 0.0217 | 2.82 | 0.967 | 0.147 |
| Y[Aib]EGTFTSDYSILLDKIAQ[Aib]AFIEYLIEGGPK([AEEA-AEEA-γGlu-C20 diacid])SGAPPPS-NH2 (N-terminus assumed; SMILES CC[C@H](C)[C@H](NC(=O)[C@H](CCCCN)NC(=O)[C@H](CC(=O)O)NC(=O)[C@H](CC(C)C)NC(=O)[C@H](CC(C)C)NC(=O)[C@@H](NC(=O)[C@H](CO)NC(=O)[C@H](Cc1ccc(O)cc1)NC(=O)[C@H](CC(=O)O)NC(=O)[C@H](CO)NC(=O)[C@@H](NC(=O)[C@H](Cc1ccccc1)NC(=O)[C@@H](NC(=O)CNC(=O)[C@H](CCC(=O)O)NC(=O)C(C)(C)NC(=O)[C@@H](N)Cc1ccc(O)cc1)[C@@H](C)O)[C@@H](C)O)[C@@H](C)CC)C(=O)N[C@@H](C)C(=O)N[C@@H](CCC(N)=O)C(=O)NC(C)(C)C(=O)N[C@@H](C)C(=O)N[C@@H](Cc1ccccc1)C(=O)N[C@H](C(=O)N[C@@H](CCC(=O)O)C(=O)N[C@@H](Cc1ccc(O)cc1)C(=O)N[C@@H](CC(C)C)C(=O)N[C@H](C(=O)N[C@@H](CCC(=O)O)C(=O)NCC(=O)NCC(=O)N1CCC[C@H]1C(=O)N[C@@H](CCCCNC(=O)COCCOCCNC(=O)COCCOCCNC(=O)CC[C@H](NC(=O)CCCCCCCCCCCCCCCCCCC(=O)O)C(=O)O)C(=O)N[C@@H](CO)C(=O)NCC(=O)N[C@@H](C)C(=O)N1CCC[C@H]1C(=O)N1CCC[C@H]1C(=O)N1CCC[C@H]1C(=O)N[C@@H](CO)C(N)=O)[C@@H](C)CC)[C@@H](C)CC) [Example 41] | 0.0637 | 0.96 | 0.637 | 0.229 |
| Y[Aib]EGTFTSDYSILLDKIAQ[Aib]AFIEYLIEGGPSSK([AEEA-AEEA-γGlu-C20 diacid])APPPS-NH2 (N-terminus assumed; SMILES CC[C@H](C)[C@H](NC(=O)[C@H](CCCCN)NC(=O)[C@H](CC(=O)O)NC(=O)[C@H](CC(C)C)NC(=O)[C@H](CC(C)C)NC(=O)[C@@H](NC(=O)[C@H](CO)NC(=O)[C@H](Cc1ccc(O)cc1)NC(=O)[C@H](CC(=O)O)NC(=O)[C@H](CO)NC(=O)[C@@H](NC(=O)[C@H](Cc1ccccc1)NC(=O)[C@@H](NC(=O)CNC(=O)[C@H](CCC(=O)O)NC(=O)C(C)(C)NC(=O)[C@@H](N)Cc1ccc(O)cc1)[C@@H](C)O)[C@@H](C)O)[C@@H](C)CC)C(=O)N[C@@H](C)C(=O)N[C@@H](CCC(N)=O)C(=O)NC(C)(C)C(=O)N[C@@H](C)C(=O)N[C@@H](Cc1ccccc1)C(=O)N[C@H](C(=O)N[C@@H](CCC(=O)O)C(=O)N[C@@H](Cc1ccc(O)cc1)C(=O)N[C@@H](CC(C)C)C(=O)N[C@H](C(=O)N[C@@H](CCC(=O)O)C(=O)NCC(=O)NCC(=O)N1CCC[C@H]1C(=O)N[C@@H](CO)C(=O)N[C@@H](CO)C(=O)N[C@@H](CCCCNC(=O)COCCOCCNC(=O)COCCOCCNC(=O)CC[C@H](NC(=O)CCCCCCCCCCCCCCCCCCC(=O)O)C(=O)O)C(=O)N[C@@H](C)C(=O)N1CCC[C@H]1C(=O)N1CCC[C@H]1C(=O)N1CCC[C@H]1C(=O)N[C@@H](CO)C(N)=O)[C@@H](C)CC)[C@@H](C)CC) [Example 43] | 0.0777 | 0.862 | 1.28 | 0.112 |
